Results: the Human Domainome abundance scans (Beltran et al. 2025)
± gives the uncertainty stated by the source.

B1: 1-phosphatidylinositol 4,5-bisphosphate phosphodiesterase gamma-2, residues 772 to 827; numbered along this chain, P16885 (parent)
chain: RTVKALYDYKAKRSDELSFCRGALIHNVSKEPGGWWKGDYGTRIQQYFPSNYVEDI

Variants of: B1
Experiment: abundance fitness (aPCA) (normalised: wild type 0, dead -1); higher = more abundant; growth selection in yeast, the domain comes from the species named
Details: Homo sapiens

Row | Variant | abundance fitness
1 | RTVKALYDYKAKRVDELSFCRGALIHNVSKEPGGWWKGDYGTRIQQYFPSNYVEDI | -0.16 ± 0.064
2 | RTVKALYDYKAKWSDELSFCRGALIHNVSKEPGGWWKGDYGTRIQQYFPSNYVEDI | -0.846 ± 0.36
3 | RTVKALYDYKAKMSDELSFCRGALIHNVSKEPGGWWKGDYGTRIQQYFPSNYVEDI | -0.021 ± 0.081
4 | RTVKALYDYKAKGSDELSFCRGALIHNVSKEPGGWWKGDYGTRIQQYFPSNYVEDI | -0.316 ± 0.083
5 | RTVKALYDYKAKVSDELSFCRGALIHNVSKEPGGWWKGDYGTRIQQYFPSNYVEDI | -0.47 ± 0.13
6 | RTVKALYDYKAKQSDELSFCRGALIHNVSKEPGGWWKGDYGTRIQQYFPSNYVEDI | -0.301 ± 0.18
7 | RTVKALYDYKAKCSDELSFCRGALIHNVSKEPGGWWKGDYGTRIQQYFPSNYVEDI | -0.212 ± 0.13
8 | RTVKALYDYKAKFSDELSFCRGALIHNVSKEPGGWWKGDYGTRIQQYFPSNYVEDI | -0.007 ± 0.12
9 | RTVKALYDYKAKESDELSFCRGALIHNVSKEPGGWWKGDYGTRIQQYFPSNYVEDI | -0.306 ± 0.23
10 | RTVKALYDYKAKSSDELSFCRGALIHNVSKEPGGWWKGDYGTRIQQYFPSNYVEDI | -0.056 ± 0.057
11 | RTVKALYDYKAKDSDELSFCRGALIHNVSKEPGGWWKGDYGTRIQQYFPSNYVEDI | -0.281 ± 0.14
12 | RTVKALYDYKAKTSDELSFCRGALIHNVSKEPGGWWKGDYGTRIQQYFPSNYVEDI | -0.368 ± 0.27
13 | RTVKALYDYKAKKSDELSFCRGALIHNVSKEPGGWWKGDYGTRIQQYFPSNYVEDI | -0.267 ± 0.21
14 | RTVKALYDYKAKYSDELSFCRGALIHNVSKEPGGWWKGDYGTRIQQYFPSNYVEDI | -0.1 ± 0.11
15 | RTVKALYDYKAKHSDELSFCRGALIHNVSKEPGGWWKGDYGTRIQQYFPSNYVEDI | -0.26 ± 0.16
16 | RTVKALYDYKAKLSDELSFCRGALIHNVSKEPGGWWKGDYGTRIQQYFPSNYVEDI | -0.645 ± 0.12
17 | RTVKALYDLKAKRSDELSFCRGALIHNVSKEPGGWWKGDYGTRIQQYFPSNYVEDI | -0.923 ± 0.19
18 | RTVKALYDVKAKRSDELSFCRGALIHNVSKEPGGWWKGDYGTRIQQYFPSNYVEDI | -1.07 ± 0.33
19 | RTVKALYDWKAKRSDELSFCRGALIHNVSKEPGGWWKGDYGTRIQQYFPSNYVEDI | -0.223 ± 0.098
20 | RTVKALYDKKAKRSDELSFCRGALIHNVSKEPGGWWKGDYGTRIQQYFPSNYVEDI | -0.816 ± 0.25
21 | RTVKALYDTKAKRSDELSFCRGALIHNVSKEPGGWWKGDYGTRIQQYFPSNYVEDI | -0.931 ± 0.24
22 | RTVKALYDPKAKRSDELSFCRGALIHNVSKEPGGWWKGDYGTRIQQYFPSNYVEDI | -0.734 ± 0.3
23 | RTVKALYDSKAKRSDELSFCRGALIHNVSKEPGGWWKGDYGTRIQQYFPSNYVEDI | -0.939 ± 0.27
24 | RTVKALYDRKAKRSDELSFCRGALIHNVSKEPGGWWKGDYGTRIQQYFPSNYVEDI | -0.685 ± 0.098

Row | Variant | abundance fitness
25 | RTVKALYDYKAQRSDELSFCRGALIHNVSKEPGGWWKGDYGTRIQQYFPSNYVEDI | -0.077 ± 0.052
26 | RTVKALYDYKAIRSDELSFCRGALIHNVSKEPGGWWKGDYGTRIQQYFPSNYVEDI | -0.405 ± 0.13
27 | RTVKALYDYKARRSDELSFCRGALIHNVSKEPGGWWKGDYGTRIQQYFPSNYVEDI | -0.092 ± 0.068
28 | RTVKALYDYKANRSDELSFCRGALIHNVSKEPGGWWKGDYGTRIQQYFPSNYVEDI | -0.181 ± 0.1
29 | RTVKALYDYKAMRSDELSFCRGALIHNVSKEPGGWWKGDYGTRIQQYFPSNYVEDI | -0.004 ± 0.068
30 | RTVKALYDYKAHRSDELSFCRGALIHNVSKEPGGWWKGDYGTRIQQYFPSNYVEDI | 0.113 ± 0.13
31 | RTVKALYDYKAWRSDELSFCRGALIHNVSKEPGGWWKGDYGTRIQQYFPSNYVEDI | -0.369 ± 0.24
32 | RTVKALYDYKAERSDELSFCRGALIHNVSKEPGGWWKGDYGTRIQQYFPSNYVEDI | -0.206 ± 0.18
33 | RTVKALYDYKADRSDELSFCRGALIHNVSKEPGGWWKGDYGTRIQQYFPSNYVEDI | -0.239 ± 0.1
34 | RTVKALYDYKAFRSDELSFCRGALIHNVSKEPGGWWKGDYGTRIQQYFPSNYVEDI | -0.63 ± 0.15
35 | RTVKALYDYKALRSDELSFCRGALIHNVSKEPGGWWKGDYGTRIQQYFPSNYVEDI | -0.177 ± 0.067
36 | RTVKALYDYKACRSDELSFCRGALIHNVSKEPGGWWKGDYGTRIQQYFPSNYVEDI | -0.705 ± 0.15
37 | RTVKALYDYKAGRSDELSFCRGALIHNVSKEPGGWWKGDYGTRIQQYFPSNYVEDI | -0.182 ± 0.063
38 | RTVKALYDYKASRSDELSFCRGALIHNVSKEPGGWWKGDYGTRIQQYFPSNYVEDI | -0.263 ± 0.068
39 | RTVKALYDYKAPRSDELSFCRGALIHNVSKEPGGWWKGDYGTRIQQYFPSNYVEDI | -0.93 ± 0.18
40 | RTVKALYDYKAARSDELSFCRGALIHNVSKEPGGWWKGDYGTRIQQYFPSNYVEDI | -0.16 ± 0.078
41 | RTVKALYDYKATRSDELSFCRGALIHNVSKEPGGWWKGDYGTRIQQYFPSNYVEDI | -0.097 ± 0.052
42 | RTVKALYDYKAVRSDELSFCRGALIHNVSKEPGGWWKGDYGTRIQQYFPSNYVEDI | -0.217 ± 0.086
43 | RTVKALYDYKAYRSDELSFCRGALIHNVSKEPGGWWKGDYGTRIQQYFPSNYVEDI | -0.48 ± 0.12
44 | RTVKALYDYKAKRSCELSFCRGALIHNVSKEPGGWWKGDYGTRIQQYFPSNYVEDI | -0.165 ± 0.16
45 | RTVKALYDYKAKRSAELSFCRGALIHNVSKEPGGWWKGDYGTRIQQYFPSNYVEDI | -0.182 ± 0.076
46 | RTVKALYDYKAKRSFELSFCRGALIHNVSKEPGGWWKGDYGTRIQQYFPSNYVEDI | -0.124 ± 0.14
47 | RTVKALYDYKAKRSEELSFCRGALIHNVSKEPGGWWKGDYGTRIQQYFPSNYVEDI | 0.018 ± 0.067
